Data from patent publication US20160319321.
“And” between values parts separate entries of the source, which are not always exact repeats. Equal entries are not always repeated.

Key:
[1] = target: T1, Lys(Dnp)-DQGDR-EGTFT-Lys(Abz)amide
T1 chain: KDQGDREGTFTK

[2] = target: T2, Lys(Dnp)-EHGDR-HAEGT-Lys(Abz)amide
T2 chain: KEHGDRHAEGTK

[3] = target: T3, Lys(Dnp)-DGGDR-HGEGT-Lys(Abz)amide
T3 chain: KDGGDRHGEGTK

[4] = target: T4, Lys(Dnp)-QDEGDR-HAEGT-Lys(Abz)amide
T4 chain: KQDEGDRHAEGTK

[5] = target: T5, DVKPGQPLEDEGDR-[Arg34]GLP-1(9-37)
T5 chain: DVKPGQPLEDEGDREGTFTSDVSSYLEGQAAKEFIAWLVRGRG

[6] = target: T6, DVKPGQPEYDEGDR-[Arg34]GLP-1(9-37)
T6 chain: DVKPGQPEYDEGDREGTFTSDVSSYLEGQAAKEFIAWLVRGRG

[7] = target: T7, Lys(Dnp)-NEGDR-HAEGT-Lys(Abz)amide
T7 chain: KNEGDRHAEGTK

[8] = target: T8, Lys(Dnp)-DDGDR-QGTFT-Lys(Abz)amide
T8 chain: KDDGDRQGTFTK

[9] = target: T9, Lys(Dnp)-DGGDR-HAEGT-Lys(Abz)amide
T9 chain: KDGGDRHAEGTK

[10] = target: T10, DVKPGQPEYDDDDK-[Arg34]GLP-1(9-37)
T10 chain: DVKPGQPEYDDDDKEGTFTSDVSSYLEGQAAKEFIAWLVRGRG

[11] = target: T11, Lys(Dnp)-IMGDRHAEGT-Lys(Abz)amide
T11 chain: XIMGDRHAEGTX

[12] = target: T12, Lys(Dnp)-LEGDR-HAEGT-Lys(Abz)amide
T12 chain: KLEGDRHAEGTK

[13] = target: T13, Lys(Dnp)-LDEGDR-HAEGT-Lys(Abz)amide
T13 chain: KLDEGDRHAEGTK

[14] = target: T14, Lys(Dnp)-EGGDR-HGEGT-Lys(Abz)amide
T14 chain: KEGGDRHGEGTK

[15] = target: T15, DVKPGQPLADDDDK-[Arg34]GLP-1(9-37)
T15 chain: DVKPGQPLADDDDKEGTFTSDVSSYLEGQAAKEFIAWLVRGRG

[16] = target: T16, Lys(Dnp)-SDEGDR-HAEGT-Lys(Abz)amide
T16 chain: KSDEGDRHAEGTK

[17] = target: T17, Lys(Dnp)-NYTDRHAEGT-Lys(Abz)amide
T17 chain: KNYTDRHAEGTK

[18] = target: T18, Lys(Dnp)-SSGDRHAEGT-Lys(Abz)amide
T18 chain: KSSGDRHAEGTK

[19] = target: T19, Lys(Dnp)-DLGDR-HAEGT-Lys(Abz)amide
T19 chain: KDLGDRHAEGTK

[20] = target: T20, Lys(Dnp)-DDGDR-HSQGT-Lys(Abz)amide
T20 chain: KDDGDRHSQGTK

[21] = target: T21, Lys(Dnp)-EHGDR-HGEGT-Lys(Abz)amide
T21 chain: KEHGDRHGEGTK

[22] = target: T22, Lys(Dnp)-ESGDR-EGTFT-Lys(Abz)amide
T22 chain: KESGDREGTFTK

[23] = target: T23, Lys(Dnp)-DSGDR-EGTFT-Lys(Abz)amide
T23 chain: KDSGDREGTFTK

[24] = target: T24, Lys(Dnp)-DEGDR-EGTFT-Lys(Abz)amide
T24 chain: KDEGDREGTFTK

[25] = target: T25, Lys(Dnp)-EEGDR-EGTFT-Lys(Abz)amide
T25 chain: KEEGDREGTFTK

[26] = target: T26, Lys(Dnp)-MEGDR-HAEGT-Lys(Abz)amide
T26 chain: KMEGDRHAEGTK

[27] = target: T27, Lys(Dnp)-DSGDR-HSQGT-Lys(Abz)amide
T27 chain: KDSGDRHSQGTK

[28] = target: T28, Lys(Dnp)-DYGDR-HAEGT-Lys(Abz)amide
T28 chain: KDYGDRHAEGTK

[29] = target: T29, Lys(Dnp)-EDGDR-HAEGT-Lys(Abz)amide
T29 chain: KEDGDRHAEGTK

[30] = target: T30, Lys(Dnp)-EAGDR-EGTFT-Lys(Abz)amide
T30 chain: KEAGDREGTFTK

[31] = target: T31, Lys(Dnp)-YDEGDR-HAEGT-Lys(Abz)amide
T31 chain: KYDEGDRHAEGTK

[32] = target: T32, Lys(Dnp)-VDEGDR-HAEGT-Lys(Abz)amide
T32 chain: KVDEGDRHAEGTK

[33] = target: T33, DVEPGQPLYDEGDR-[Arg34]GLP-1(9-37)
T33 chain: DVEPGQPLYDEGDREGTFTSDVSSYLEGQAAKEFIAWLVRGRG

[34] = target: T34, Lys(Dnp)-FDEGDR-HAEGT-Lys(Abz)amide
T34 chain: KFDEGDRHAEGTK

[35] = target: T35, Lys(Dnp)-ETGDR-HAEGT-Lys(Abz)amide
T35 chain: KETGDRHAEGTK

[36] = target: T36, Lys(Dnp)-YEGDR-HAEGT-Lys(Abz)amide
T36 chain: KYEGDRHAEGTK

[37] = target: T37, Lys(Dnp)-EFGDR-HAEGT-Lys(Abz)amide
T37 chain: KEFGDRHAEGTK

[38] = target: T38, Lys(Dnp)-EHGDR-EGTFT-Lys(Abz)amide
T38 chain: KEHGDREGTFTK

[39] = target: T39, Lys(Dnp)-PEGDR-HAEGT-Lys(Abz)amide
T39 chain: KPEGDRHAEGTK

[40] = target: T40, DVEPGQPLYDDDDK-[Arg34]GLP-1(9-37)
T40 chain: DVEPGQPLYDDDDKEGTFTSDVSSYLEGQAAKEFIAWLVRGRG

B1: bovine Enterokinase light chain variant (C112A, L134K, I135K) (protein)
chain: IVGGSDSREGAWPWVVALYFDDQQVCGASLVSRDWLVSAAHCVYGRNMEPSKWKAVLGLHMASNLTSPQIETRLIDQIVINPHYNKRRKNNDIAMMHLEMKVNYTDYIQPIALPEENQVFPPGRICSIAGWGAKKYQGSTADVLQEADVPLLSNEKCQQQMPEYNITENMVCAGYEAGGVDSCQGDSGGPLMCQENNRWLLAGVTSFGYQCALPNRPGVYARVPRFTEWIQSFLH
B1 gave an Activity (%) [1] of 412%, an Activity (%) [2] of 549% and an Activity (%) [3] of 301%. It also gave an Activity (%) [4] of 141%, an Activity (%) [5] of 653% and an Activity (%) [6] of 625%. For the same protein, the Activity (%) [7] was 457%, the Activity (%) [8] was 338% and the Activity (%) [9] was 431%. The Activity (%) [10] was 158%, the Activity (%) [11] was 125% and the Activity (%) [12] was 398%. The Activity (%) [13] was 259%, the Activity (%) [14] was 279% and the Activity (%) [15] was 134%. For the same protein, the Activity (%) [16] was 222%, the Activity (%) [17] was 59% and the Activity (%) [18] was 191%. The Activity (%) [19] was 795% and 722%, the Activity (%) [20] was 310% and the Activity (%) [21] was 491%. The Activity (%) [22] was 362%, the Activity (%) [23] was 342% and the Activity (%) [24] was 890%. The Activity (%) [25] was 580%, the Activity (%) [26] was 419% and the Activity (%) [27] was 200%. For the same protein, the Activity (%) [28] was 505%, the Activity (%) [29] was 632% and the Activity (%) [30] was 355%. The Activity (%) [31] was 153%, the Activity (%) [32] was 184% and the Activity (%) [33] was 951%. The Activity (%) [34] was 200%, the Activity (%) [35] was 475% and the Activity (%) [36] was 377%. For the same protein, the Activity (%) [37] was 486%, the Activity (%) [38] was 339% and the Activity (%) [39] was 441%. The Activity (%) [40] was 203%.
